Reference: paper PMC9482650, “Quantitative fragmentomics allow affinity mapping of interactomes” (Nature Communications, 2022)

What was measured:
Test in all cases: holdup assay
Set-up in all cases: key: below the threshold = too weak to quantify, mostly under pKd 3.1 to 4
Settings in all cases: plain residues with an end cap or a label only (N-terminal biotin on a linker: ttds)
[1] = molecular target: T1, APBA1_1, Q02410
T1 sequence (Q02410 651-752, limits assumed, looked up): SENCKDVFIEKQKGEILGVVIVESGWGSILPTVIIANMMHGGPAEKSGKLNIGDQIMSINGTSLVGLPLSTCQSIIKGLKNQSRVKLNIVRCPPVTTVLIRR

[2] = molecular target: T2, APBA1_2, Q02410
T2 sequence (Q02410 742-832, limits assumed, looked up): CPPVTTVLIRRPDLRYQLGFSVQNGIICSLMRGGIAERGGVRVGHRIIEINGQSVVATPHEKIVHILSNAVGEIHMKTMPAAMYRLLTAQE

[3] = molecular target: T3, DFNB31_2, Q9P202
T3 sequence (Q9P202 274-371, limits assumed, looked up): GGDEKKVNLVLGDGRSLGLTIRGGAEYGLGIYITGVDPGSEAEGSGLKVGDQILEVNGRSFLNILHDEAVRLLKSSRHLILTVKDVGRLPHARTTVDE

[4] = molecular target: DLG4_3, P78352
[5] = molecular target: T4, FRMPD1, Q5SYB0
T4 sequence (Q5SYB0 52-145, limits assumed, looked up): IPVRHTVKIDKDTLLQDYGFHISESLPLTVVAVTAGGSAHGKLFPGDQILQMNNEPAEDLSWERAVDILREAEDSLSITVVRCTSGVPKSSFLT

[6] = molecular target: GIPC2, Q8TF65
[7] = molecular target: GOPC, Q9HD26
[8] = molecular target: T5, GRIP1_4, Q9Y3R0
T5 sequence (Q9Y3R0 467-571, limits assumed, looked up): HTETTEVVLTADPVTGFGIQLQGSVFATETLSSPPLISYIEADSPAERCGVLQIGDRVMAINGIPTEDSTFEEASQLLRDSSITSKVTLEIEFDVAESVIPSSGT

[9] = molecular target: T6, GRIP1_5, Q9Y3R0
T6 sequence (Q9Y3R0 568-668, limits assumed, looked up): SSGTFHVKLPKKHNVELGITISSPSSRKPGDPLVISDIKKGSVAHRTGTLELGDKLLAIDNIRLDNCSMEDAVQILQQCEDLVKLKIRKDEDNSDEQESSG

[10] = molecular target: HTRA1, Q92743
[11] = molecular target: T7, HTRA3, P83110
T7 sequence (P83110 354-453, limits assumed, looked up): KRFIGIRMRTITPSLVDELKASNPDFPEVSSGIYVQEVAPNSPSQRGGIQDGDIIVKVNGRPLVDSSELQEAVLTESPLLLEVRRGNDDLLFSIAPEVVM

[12] = molecular target: T8, HTRA4, P83105
T8 sequence (P83105 378-476, limits assumed, looked up): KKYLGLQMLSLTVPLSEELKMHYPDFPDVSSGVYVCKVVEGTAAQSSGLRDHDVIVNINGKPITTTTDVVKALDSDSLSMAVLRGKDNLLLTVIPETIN

[13] = molecular target: Inadl_1, Q8NI35
[14] = molecular target: Inadl_2, Q8NI35
[15] = molecular target: Inadl_3, Q8NI35
[16] = molecular target: Inadl_4, Q8NI35
[17] = molecular target: MAGI2_4, Q86UL8
[18] = molecular target: T9, MPDZ_10, O75970
T9 sequence (O75970 1624-1722, limits assumed, looked up): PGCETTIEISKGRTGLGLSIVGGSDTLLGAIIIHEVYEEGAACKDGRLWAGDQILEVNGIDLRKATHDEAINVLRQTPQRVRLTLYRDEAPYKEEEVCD

[19] = molecular target: NHERF4_1, Q86UT5-2
[20] = molecular target: NOS1, P29475
[21] = molecular target: T10, PDZRN3_1, Q9UPQ7
T10 sequence (Q9UPQ7 244-349, limits assumed, looked up): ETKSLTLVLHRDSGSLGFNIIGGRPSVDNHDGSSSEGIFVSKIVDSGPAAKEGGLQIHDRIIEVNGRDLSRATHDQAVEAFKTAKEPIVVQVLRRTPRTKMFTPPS

[22] = molecular target: SCRIB_2, Q14160
[23] = molecular target: SCRIB_3, Q14160
[24] = molecular target: T11, TIAM2, Q8IVF5
T11 sequence (Q8IVF5 885-986, limits assumed, looked up): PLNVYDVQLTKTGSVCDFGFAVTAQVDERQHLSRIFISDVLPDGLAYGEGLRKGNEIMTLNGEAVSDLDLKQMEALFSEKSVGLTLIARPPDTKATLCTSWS

[25] = molecular target: TJP2_1, Q9UDY2
[26] = molecular target: T12, TJP3_3, O95049
T12 sequence (O95049 375-456, limits assumed, looked up): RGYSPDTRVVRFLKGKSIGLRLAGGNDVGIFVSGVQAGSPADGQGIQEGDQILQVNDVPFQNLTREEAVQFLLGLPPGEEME

Inadl_3, Q8NI35, sequence (Q8NI35 359-469): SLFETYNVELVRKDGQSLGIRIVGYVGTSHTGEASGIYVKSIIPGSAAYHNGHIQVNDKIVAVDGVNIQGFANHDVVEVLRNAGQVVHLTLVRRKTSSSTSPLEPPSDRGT
SCRIB_2, Q14160, sequence (Q14160 857-960): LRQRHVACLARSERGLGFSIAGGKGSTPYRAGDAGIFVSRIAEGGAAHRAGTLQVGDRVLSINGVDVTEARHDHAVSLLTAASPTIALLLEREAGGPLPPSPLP
GIPC2, Q8TF65, sequence (Q8TF65 112-203): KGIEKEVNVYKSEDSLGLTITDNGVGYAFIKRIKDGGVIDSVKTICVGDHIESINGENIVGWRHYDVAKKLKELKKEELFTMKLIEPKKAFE
HTRA1, Q92743, sequence (Q92743 360-477): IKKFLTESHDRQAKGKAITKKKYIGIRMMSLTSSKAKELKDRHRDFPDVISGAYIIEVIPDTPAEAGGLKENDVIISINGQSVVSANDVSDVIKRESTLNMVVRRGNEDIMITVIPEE
SCRIB_3, Q14160, sequence (Q14160 999-1103): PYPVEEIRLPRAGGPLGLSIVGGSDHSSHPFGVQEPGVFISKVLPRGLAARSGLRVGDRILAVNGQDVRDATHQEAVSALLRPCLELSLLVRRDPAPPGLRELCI
NHERF4_1, Q86UT5-2, sequence (Q86UT5 other isoform, or with tags, fused parts or gaps): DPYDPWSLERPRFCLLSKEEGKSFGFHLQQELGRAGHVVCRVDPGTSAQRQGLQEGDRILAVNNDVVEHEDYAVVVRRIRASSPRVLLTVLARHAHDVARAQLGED
NOS1, P29475, sequence (P29475 9-101): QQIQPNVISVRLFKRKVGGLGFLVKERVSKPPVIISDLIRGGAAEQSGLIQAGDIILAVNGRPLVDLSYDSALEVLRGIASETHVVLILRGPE
Inadl_1, Q8NI35, sequence (Q8NI35 113-229): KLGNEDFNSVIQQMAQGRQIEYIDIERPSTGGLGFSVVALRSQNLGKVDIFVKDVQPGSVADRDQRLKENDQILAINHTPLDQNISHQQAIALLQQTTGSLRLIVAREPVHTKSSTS
Inadl_2, Q8NI35, sequence (Q8NI35 238-335): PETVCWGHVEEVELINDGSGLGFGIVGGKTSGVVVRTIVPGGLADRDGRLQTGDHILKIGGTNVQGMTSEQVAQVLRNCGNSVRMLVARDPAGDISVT
DLG4_3, P78352, sequence (P78352 306-403): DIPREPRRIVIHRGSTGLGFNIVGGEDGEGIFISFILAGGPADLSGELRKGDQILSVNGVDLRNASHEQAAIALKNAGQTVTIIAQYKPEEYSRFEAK
Inadl_4, Q8NI35, sequence (Q8NI35 547-651): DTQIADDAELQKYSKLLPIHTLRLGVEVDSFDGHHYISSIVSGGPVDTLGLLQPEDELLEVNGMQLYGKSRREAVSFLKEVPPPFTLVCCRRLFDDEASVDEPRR
MAGI2_4, Q86UL8, sequence (Q86UL8 772-865): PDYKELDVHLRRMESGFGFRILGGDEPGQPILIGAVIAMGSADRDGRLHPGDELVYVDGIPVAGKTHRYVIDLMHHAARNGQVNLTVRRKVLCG
TJP2_1, Q9UDY2, sequence (Q9UDY2 24-128): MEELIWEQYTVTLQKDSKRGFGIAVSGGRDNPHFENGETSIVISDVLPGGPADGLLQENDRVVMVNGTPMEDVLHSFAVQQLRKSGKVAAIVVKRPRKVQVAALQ

With SKPTRRETEV [HPV35-E6, P27228] the pKd [1] was “below the threshold”, the pKd [2] was “below the threshold” and the pKd [3] was “below the threshold”. For the same binder, the pKd [4] was 5.2, the pKd [5] was “below the threshold” and the pKd [6] was “below the threshold”. For the same binder, the pKd [7] was “below the threshold”, the pKd [8] was “below the threshold” and the pKd [9] was “below the threshold”. For the same binder, the pKd [10] was “below the threshold”, the pKd [11] was “below the threshold” and the pKd [12] was “below the threshold”. For the same binder, the pKd [13] was “below the threshold”, the pKd [14] was “below the threshold” and the pKd [15] was “below the threshold”. For the same binder, the pKd [16] was “below the threshold”, the pKd [17] was 4.34 and the pKd [18] was “below the threshold”. For the same binder, the pKd [19] was “below the threshold”, the pKd [20] was 3.74 and the pKd [21] was 4.89. The pKd [22] was 4.7, the pKd [23] was 4.89 and the pKd [24] was “below the threshold”. For the same binder, the pKd [25] was “below the threshold” and the pKd [26] was “below the threshold”.

In the case of DKDPHSETAL [TMIGD1, Q6UXZ0], the pKd [1] is reported as “below the threshold”, the pKd [2] is reported as 3.65 and the pKd [3] is reported as “below the threshold”. The pKd [4] was “below the threshold”, the pKd [5] was “below the threshold” and the pKd [6] was “below the threshold”. The pKd [7] was “below the threshold”, the pKd [8] was “below the threshold” and the pKd [9] was “below the threshold”. For the same binder, the pKd [10] was “below the threshold”, the pKd [11] was “below the threshold” and the pKd [12] was “below the threshold”. The pKd [13] was “below the threshold”, the pKd [14] was “below the threshold” and the pKd [15] was “below the threshold”. The pKd [16] was “below the threshold”, the pKd [17] was “below the threshold” and the pKd [18] was “below the threshold”. For the same binder, the pKd [19] was 3.88, the pKd [20] was 3.86 and the pKd [21] was 4.64. The pKd [22] was 4.23, the pKd [23] was 5.01 and the pKd [24] was “below the threshold”. For the same binder, the pKd [25] was “below the threshold” and the pKd [26] was 3.49.
